Measurements as given in patent US20200353003A1.

Target: BDCA2 antigen (CLEC4C, CD303) expressed on transduced RS4-11 and A95-KK reporter cells (UniProt Q8WTT0)
Assay: cell-based or functional assay

UniProt Q8WTT0, sequence (Q8WTT0 whole entry): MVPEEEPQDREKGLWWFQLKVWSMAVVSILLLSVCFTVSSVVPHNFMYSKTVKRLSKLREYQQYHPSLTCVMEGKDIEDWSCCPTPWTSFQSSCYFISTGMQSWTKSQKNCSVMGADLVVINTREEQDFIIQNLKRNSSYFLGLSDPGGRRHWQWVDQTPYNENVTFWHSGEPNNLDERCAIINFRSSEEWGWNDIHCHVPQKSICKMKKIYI

B1: BDCA2 CAR (chimeric antigen receptor specific for BDCA2, with aBDCA2-scFV as binder) (protein, part only; not given: hinge, transmembrane and signaling domains, not shown: another chain or arm of the molecule; a dimerising Fc or GST)
scFv: DIQMTQSPSSVSASVGDRVTITCRASQEISGYLSWYQQKPGKAIKRLIYAASTLDSGVPSRFSGSRSGTDFTLTISSLQSEDFATYYCLQYASYPPTFGGGTKLEIKGGGGSGGGGSGGGGSQVTLKESGPTLVKPTQTLTLTCTFSGFSLSTSGMGVGWIRQPPGKALEWLAHIWWEDDKYYNPSLKSRLTITKDTSKNQVVLTMTNMDPVDTATYYCTRNWDYYTMDYWGQGTTVTVSS
Q: B1 was tested. Which killing of target cells expressing BDCA2 (reporter-BDCA2 and RS4-11-BDCA2) by NK and T cells expressing BDCA2-CAR, flow cytometry based cytotoxic assay, E:T=1:1 did it give?
A: > 70%
